Results reported in the supplement of paper PMC10724198.
± gives the standard deviation of the averaged measurements.

System: Saccharomyces cerevisiae
Assay: protein stability index of tFT-peptide fusion (C-terminal peptide) (PSI (0-1 scale)); higher = more stable (slower turnover)
Settings: genetic background: wild type; temperature: 30 C
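Further: PSI is a weighted mean of sequencing reads over stability bins, variants kept only with over 10 reads, mCherry proximal and sfGFP distal, peptide attached via GGGS linker.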

VCARSVLFFWAA
protein stability index: 0.782 ± 0.25

LFSLFFPTCFRF
protein stability index: 0.557 ± 0.0092

VCTVSGFGVLGA
protein stability index: 0.751 ± 0.15

TQSYLVSLRCGF
protein stability index: 0.796 ± 0.13

FAFVCLASILGS
protein stability index: 0.5313 ± 0.0017

KNTNQKKKKKNT
protein stability index: 0.718 ± 0.044

RSSDFASDRGWT
protein stability index: 0.67 ± 0.028

YLNVVSSFYTCS
protein stability index: 0.684 ± 0.02

PRPVRAVEMLTL
protein stability index: 0.715 ± 0.029

VSARWSTSLCLS
protein stability index: 0.533 ± 0.015

RVSWGSTRLSRA
protein stability index: 0.6427 ± 0.0064

RDARTWTVSHGT
protein stability index: 0.703 ± 0.033

SRHWCHDTGTLT
protein stability index: 0.7 ± 0.012

LSNGVCSVSFLL
protein stability index: 0.672 ± 0.024

VFCSLAWFGLLL
protein stability index: 0.598 ± 0.054

ISNPAVHNPAGG
protein stability index: 0.641 ± 0.017

SRPISCSLPCCV
protein stability index: 0.646 ± 0.054

KIEAHKKYKKHQ
protein stability index: 0.726 ± 0.026

VGSLRAGYFLRL
protein stability index: 0.637 ± 0.043

RFNGWRDKEAME
protein stability index: 0.707 ± 0.036

RLLSSPLHPPLP
protein stability index: 0.701 ± 0.018

RAIRWFGGRLVG
protein stability index: 0.7228 ± 0.0049

YLEQALLDVQTD
protein stability index: 0.756 ± 0.021

LSRGPYRPHVNP
protein stability index: 0.69 ± 0.051

PLSSLSLPTPPT
protein stability index: 0.707 ± 0.062

RSFPSPPASLLL
protein stability index: 0.66 ± 0.062

PHVSGYTVLIWF
protein stability index: 0.5588 ± 0.0054

GVLGCRWWGSMG
protein stability index: 0.657 ± 0.015

RFSYFPALFFPS
protein stability index: 0.678 ± 0.043

LPHLDPPPLPPP
protein stability index: 0.6386 ± 0.0052

FFLGGGVGLVLV
protein stability index: 0.528 ± 0.053

PTIPLLPPPLPP
protein stability index: 0.622 ± 0.022

YFKLLHSRPSVG
protein stability index: 0.675 ± 0.044

WGWSGGEDCLEG
protein stability index: 0.64 ± 0.0073

HLPPPPSPPPPP
protein stability index: 0.68 ± 0.051

KAWGGEGRDAWG
protein stability index: 0.702 ± 0.069

ALVQWRVGGCGG
protein stability index: 0.709 ± 0.085

PPPPPSRPPPAL
protein stability index: 0.7405 ± 0.0049

QQKKCNTIKKNE
protein stability index: 0.637 ± 0.0024

SPLASVLPHAAL
protein stability index: 0.707 ± 0.049

NGVGGMHGINIM
protein stability index: 0.696 ± 0.076

PAPPLRVAPSRI
protein stability index: 0.67 ± 0.014

PSFFFFAAPLPL
protein stability index: 0.623 ± 0.028

HRTSSCESSPLA
protein stability index: 0.737 ± 0.076

LGRRHAYGSALS
protein stability index: 0.708 ± 0.12

CEGERRTLSVKP
protein stability index: 0.666 ± 0.033

GCYGRVLELAWR
protein stability index: 0.552 ± 0.035

VRWLLTSHARLT
protein stability index: 0.484 ± 0.12

KKEKGKKEKEKR
protein stability index: 0.668 ± 0.056

FSPASCPILPPL
protein stability index: 0.672 ± 0.014

WVWGWRRGLRGV
protein stability index: 0.657 ± 0.011

PQIRTPIPGSFS
protein stability index: 0.743 ± 0.074

LPTSTRRGGSHG
protein stability index: 0.6911 ± 0.0055

PHSASSVSYTLY
protein stability index: 0.701 ± 0.052

RRRGREVCRCTE
protein stability index: 0.716 ± 0.046

EDKETETSVNQK
protein stability index: 0.6758 ± 0.0059

VALNCWGYQWMG
protein stability index: 0.689 ± 0.04

AGRAPRGSWECS
protein stability index: 0.719 ± 0.18

SGALSDVCVMLL
protein stability index: 0.652 ± 0.026

PPPVPPPSPPPT
protein stability index: 0.641 ± 0.07

RVLGEGKCCIRV
protein stability index: 0.6063 ± 0.0056

AIPLPVLSFPPL
protein stability index: 0.737 ± 0.024

AVGTYFSPVVLL
protein stability index: 0.65 ± 0.016

VAGGWVPGRGEG
protein stability index: 0.69 ± 0.025

DVYDLGLPINMS
protein stability index: 0.698 ± 0.045

WAFSAFDHCVAS
protein stability index: 0.665 ± 0.058

GSLPPCPSHAPF
protein stability index: 0.698 ± 0.061

WGRRVRVEGVVL
protein stability index: 0.613 ± 0.022

TVRFYHGSFRAP
protein stability index: 0.727 ± 0.062

WFPNQCFENEIP
protein stability index: 0.742 ± 0.054

PPPSHYHSQGHN
protein stability index: 0.686 ± 0.016

KASSGRASGSMA
protein stability index: 0.673 ± 0.09

NKLKEKNEKYKV
protein stability index: 0.659 ± 0.025

CIARPSGNRSYL
protein stability index: 0.714 ± 0.069

VWLGTCLPRRAV
protein stability index: 0.725 ± 0.13

GGGACRVCGCEV
protein stability index: 0.648 ± 0.0067

LCGAVVEGGGEE
protein stability index: 0.5743 ± 0.004

RGPPGVPGSDML
protein stability index: 0.673 ± 0.023

GLSIVCRHYEES
protein stability index: 0.685 ± 0.022

SIPLIMPLSDYV
protein stability index: 0.675 ± 0.015

GYPRPLPYTPST
protein stability index: 0.687 ± 0.023

PPPLSPPTPPPP
protein stability index: 0.674 ± 0.049

VKRPGVGRSSTA
protein stability index: 0.731 ± 0.051

PPRPLPPHPLLL
protein stability index: 0.681 ± 0.049

RDELSYIDICLT
protein stability index: 0.691 ± 0.025

GRVRYRGSRFLG
protein stability index: 0.656 ± 0.013

PHHPPAHPPTPP
protein stability index: 0.683 ± 0.023

KKKKQKIKKQRK
protein stability index: 0.63 ± 0.00095

PIVSISLGIGSS
protein stability index: 0.6758 ± 0.001

CPALPPAPLSPL
protein stability index: 0.725 ± 0.018

VGLLLAGKIVTY
protein stability index: 0.604 ± 0.033

FGVVLVGAGWGG
protein stability index: 0.67 ± 0.035

VHGAQICCIPWY
protein stability index: 0.699 ± 0.063

QVHPKRPLNQSL
protein stability index: 0.735 ± 0.054

PFLCCPRMSHFL
protein stability index: 0.705 ± 0.013

PPPPSLLPPSPS
protein stability index: 0.702 ± 0.068

LRKSSIQRQKKR
protein stability index: 0.653 ± 0.034

RPPPPTAPPPSR
protein stability index: 0.719 ± 0.043

RGDHPAAGFPCG
protein stability index: 0.686 ± 0.033

CVYGWVGRGWGA
protein stability index: 0.707 ± 0.079

AGVGPTHVRPPR
protein stability index: 0.676 ± 0.0079

YSREVVGKQLFM
protein stability index: 0.693 ± 0.027

SQPLPNRLKTRG
protein stability index: 0.695 ± 0.032

NSKTKNCYKTGS
protein stability index: 0.705 ± 0.061

VLLRSTRRPLPC
protein stability index: 0.657 ± 0.036

SQPNRESQNTFN
protein stability index: 0.711 ± 0.052

PPPHPHPFSLAL
protein stability index: 0.691 ± 0.017

FPPPPPSFSQPL
protein stability index: 0.741 ± 0.034

GRWRCVYRGCGG
protein stability index: 0.646 ± 0.076

LPRSASLHVRPH
protein stability index: 0.707 ± 0.023

PLSFHPHLTSSP
protein stability index: 0.671 ± 0.013

PPLLPPAPLFPP
protein stability index: 0.694 ± 0.025

PPRPLPPPRPSS
protein stability index: 0.691 ± 0.037

TLPPPSLPPSSS
protein stability index: 0.652 ± 0.071

GVVVKDPGNAFL
protein stability index: 0.704 ± 0.029

CFRGGLLSESVV
protein stability index: 0.6714 ± 0.0011

NSWGRRAGMRGG
protein stability index: 0.731 ± 0.1

TLSQILVSSSLS
protein stability index: 0.5896 ± 0.0019

PLFFLPLPPPLF
protein stability index: 0.6881 ± 0.0046

SPRSSPLPSPPP
protein stability index: 0.766 ± 0.026

FFIGFGGVAGGG
protein stability index: 0.695 ± 0.01

PPPLSSPGPPPL
protein stability index: 0.704 ± 0.014

PSVPPRVCSFSI
protein stability index: 0.735 ± 0.08

SPAPLALSLRPP
protein stability index: 0.668 ± 0.023

SGHRPPRVAVDS
protein stability index: 0.66 ± 0.044

PLAALPLALSLP
protein stability index: 0.6575 ± 0.0055

PYSGSPRALPRP
protein stability index: 0.716 ± 0.069

PPPPPPPPSSSL
protein stability index: 0.6819 ± 0.0041

GWGGGGGAGGSV
protein stability index: 0.683 ± 0.018

CSPSPARPPPPR
protein stability index: 0.684 ± 0.013

GPLRPTPAPNRT
protein stability index: 0.644 ± 0.0079

AEFSGVVIGRWW
protein stability index: 0.718 ± 0.054

ESTNKKKEKKNR
protein stability index: 0.661 ± 0.04

PDLGRQPGGSET
protein stability index: 0.647 ± 0.052

VGRAPDFLYGVW
protein stability index: 0.691 ± 0.044

LSLFSLSPSFSR
protein stability index: 0.718 ± 0.013

VRAHARPTKGKP
protein stability index: 0.682 ± 0.059

LKRRREGEPGKQ
protein stability index: 0.625 ± 0.053

VLAGTGGCASVW
protein stability index: 0.739 ± 0.022

MGVGRFEWVVGG
protein stability index: 0.665 ± 0.053

LVLKLWNKFFVD
protein stability index: 0.65438 ± 0.00026

SIIIPATCEYLV
protein stability index: 0.603 ± 0.013

DLGLSYCGYAML
protein stability index: 0.683 ± 0.064

VWRCWGGKGQDS
protein stability index: 0.729 ± 0.037

AKGRRRRGRWWG
protein stability index: 0.682 ± 0.032

PSVLGCIVPLIW
protein stability index: 0.7197 ± 0.0043
